Test results taken from patent publication US20210179686A1 (Memorial Sloan Kettering, published 2021).
Numbering of substitutions follows the chain as printed.

Tests used:
[1] = molecular target: T1, R2-EE12RR345L CD28-9c delta; experiment: double-transduced C1498 cells sorted with CD34 beads by the captured Q2 zipper (FIG. 19)
T1 construct: also called tandem circular CD20 mimotope-tagged capture leucine zipper
T1 chain: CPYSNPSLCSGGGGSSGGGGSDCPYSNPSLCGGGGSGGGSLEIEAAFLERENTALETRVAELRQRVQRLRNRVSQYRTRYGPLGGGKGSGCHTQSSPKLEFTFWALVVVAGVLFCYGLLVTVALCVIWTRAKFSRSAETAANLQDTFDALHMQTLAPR
Description: Next, the cells were magnetically sorted with CD34 beads. Subsequently, the cells were incubated with antibodies in the presence of complement.

[2] = molecular target: T2, RR12EE345L linker EE12RR345L CD80 (mouse (CD80 part, SEQ ID NO: 111)); experiment: co-transduced T cells sorted with anti-FLAG magnetic beads (FIG. 21A)
T2 construct: left out; Expressed on T cells from a vector that also carries the CD20-streptag-CAR; also called CD80 functionalized leucine zipper
T2 chain: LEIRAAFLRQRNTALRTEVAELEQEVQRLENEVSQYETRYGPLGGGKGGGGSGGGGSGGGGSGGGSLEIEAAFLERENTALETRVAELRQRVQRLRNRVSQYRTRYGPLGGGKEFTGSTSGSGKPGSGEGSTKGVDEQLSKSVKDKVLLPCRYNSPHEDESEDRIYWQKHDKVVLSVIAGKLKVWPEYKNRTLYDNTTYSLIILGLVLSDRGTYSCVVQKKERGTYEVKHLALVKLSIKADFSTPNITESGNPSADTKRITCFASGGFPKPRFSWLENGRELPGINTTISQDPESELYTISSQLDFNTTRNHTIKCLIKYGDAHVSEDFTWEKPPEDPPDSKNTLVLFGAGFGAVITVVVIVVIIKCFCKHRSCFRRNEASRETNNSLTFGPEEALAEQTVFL
Excerpt: T cells were transduced with vectors encoding (a) FLAG-RR12EE345L iCaspase9 CD19-myc-CAR and (b) RR12EE345L linker EE12RR345L CD80 CD20-streptag-CAR. Next, cells were magnetically sorted with anti-FLAG magnetic beads.

[3] = molecular target: T3, 2M mutant: RR1234E5L linker EE12RR345L membrane-bound construct; experiment: FLAG staining of co-transduced C1498 cells, flow cytometry (FIG. 20)
T3 chain: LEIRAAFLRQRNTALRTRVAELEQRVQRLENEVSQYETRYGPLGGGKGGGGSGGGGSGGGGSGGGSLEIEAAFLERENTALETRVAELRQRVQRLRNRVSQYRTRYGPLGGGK
Excerpt: (§1) C1498 cells were co-transduced with the FLAG-RR12EE345L GFP vector and one of the six mutants as part of RR12EE345L linker EE12RR345L BFP vector constructs. […] Thus, mutating the […] leucine zipper at “g” position residues to include repulsive amino acid interactions can reduce the degree of blocking by the linked […]-based mutant leucine zipper.

[4] = molecular target: T4, 1M mutant: RR123E45L linker EE12RR345L membrane-bound construct; experiment: as above
T4 chain: T3 chain with R25E
Excerpt: as §1

[5] = molecular target: T5, 1N mutant: E1R2EE345L linker EE12RR345L membrane-bound construct; experiment: as above
T5 chain: T3 chain with R4E, R18E, R25E
Excerpt: as §1

[6] = molecular target: T6, 3N mutant: EE12R3E45L linker EE12RR345L membrane-bound construct; experiment: as above
T6 chain: T3 chain with R4E, R11E, R25E
Excerpt: as §1

[7] = molecular target: T7, 3C mutant: RR12345L linker EE12RR345L membrane-bound construct; experiment: as above
T7 chain: T3 chain with E32R
Excerpt: as §1

[8] = molecular target: T8, 2N mutant: EE12345L linker EE12RR345L membrane-bound construct; experiment: as above
T8 chain: T3 chain with R4E, R11E, R18E, R25E
Excerpt: as §1

Measured: binding result

B1: Q2-RR12EE345L (designed binder)
chain: GSGELPTQGTFSNVSTNVSGGGGSGGGSELPTQGTFSNVSTNVSGGGGSGGGSALGLEIRAAFLRQRNTALRTEVAELEQEVQRLENEVSQYETRYGPLGGGK
binds: [1]

B2: FLAG-RR12EE345L leucine zipper (secreted, affinity-tagged) (designed binder)
chain: DYKDDDDKLEIRAAFLRQRNTALRTEVAELEQEVQRLENEVSQYETRYGPLGGGK
notes: also called RR12EE345L-FLAG
binds: [2] | [3] | [4] | [5] | [6] | [7] | [8]
